Our source for the Ki and IC50 values is US20060093617A1.

The target of the first assay is HLA-A0301 (human).
Assay: not given
Conditions: not given
Molecule AAYAAQGYK (modifications not checked) returned a Ki of less than 1000 nM.

Staying with this assay, now noted: remark: other sources report otherwise.
VTLTHPITK (modifications not checked): the Ki was less than 1000 nM.

The target in a further assay is HLA-A2402 (human).
Assay: not given
Conditions: not given
VILDSFDPL (modifications not checked): the inhibition constant (Ki) is more than 20000 nM. The same measure, in the same setting: the figure for IIMYAPTLW (modifications not checked) is 0.8 nM; for GLTHIDAHF (modifications not checked) it is 3 nM. Same read-out and setting: the figure for YYRGLDVSVI (modifications not checked) is 2 nM.

Staying with this assay, now noted: remark: other sources report otherwise.
NLPGCSFSI (modifications not checked) had an inhibitory constant (Ki) of 8 nM. In turn, RMILMTHFF (modifications not checked) yielded a Ki of 6 nM.

In the next assay the target is HLA-B0702 (human).
Assay: not given
Conditions: not given
TPAETSVRL (modifications not checked): the Ki is less than 1000 nM.

The same assay, now with this note: remark: other sources report otherwise.
In the case of APPPSWDQM (modifications not checked), the inhibition constant (Ki) was less than 1000 nM. The same measure, in the same setting: the same measure for SPGQRVEFL (modifications not checked): less than 1000 nM. APTLWARMI (modifications not checked) yielded a Ki of less than 1000 nM.

The target of another assay is HLA-B0702 (human). Description: competition vs 125I probe peptide, purified HLA.
Conditions: not given
With ATLGFGAYM (modifications not checked), the inhibitory constant (Ki) turned out to be 13000 nM.

Molecule APLGGAARA (modifications not checked) had an inhibitory constant (Ki) of 115 nM.

Take APTGSGKST (modifications not checked): the Ki worked out at 370 nM.

Still in this assay, the particulars now being: remark: other sources report otherwise.
On to APTLWARMIL (modifications not checked), for which the Ki was found to be 1 nM. Still for that read-out and setting: the same measure for ALAHGVRVL (modifications not checked): 7950 nM.

The molecule LPRRGPRLGV (modifications not checked) showed a Ki of 3 nM.

Another assay addresses HLA-A0201 (human). Description: competition vs 125I probe peptide, purified HLA-A*0201.
Conditions: not given
VVSTLPQAV (modifications not checked) came in with an inhibitory constant (Ki) of 884 nM.

In the case of KVLVLNPSV (modifications not checked), the inhibition constant Ki came out at 50 nM. Molecule YQATVCARA (modifications not checked) yielded an inhibition constant (Ki) of 20 nM. Turning to YLFNWAVRT (modifications not checked), the Ki is 29 nM. Regarding TLWARMILM (modifications not checked), the Ki was 8 nM. On the same count and under the same terms, the same measure for RLYIGGPLT (modifications not checked): 536 nM; for MALYDVVST (modifications not checked): 1140 nM. On to NIIMYAPTL (modifications not checked), for which the inhibition constant (Ki) was 70 nM. The same measure, in the same setting: the same measure for GMFDSSVLC (modifications not checked): 71 nM.

The assay is the same for the next values; noted with them: remark: other sources report otherwise.
Molecule NLPGCSFSI (modifications not checked) displayed an inhibitory constant (Ki) of 70 nM. Still for that read-out and setting: the same measure for IMACMSADL (modifications not checked): 66 nM; for YIPLVGAPL (modifications not checked): 77 nM.

In a further assay the target is HLA-B*0702 (human). Description: competition with 125I-labeled probe peptide, purified HLA.
Conditions: not given
In turn, LPRRGPRLG (modifications not checked) showed an IC50 of 124 nM.

As for APLGGAARA (modifications not checked), the half-maximal inhibitory concentration (IC50) is 115 nM. As for APTGSGKST (modifications not checked), the concentration for half-maximal inhibition (IC50) was 370 nM.

Another assay addresses HLA-A0201 (human). The assay is described as follows: competition with 125I-labelled probe peptide, purified HLA.
Conditions: not given
Molecule CLVDYPYRL (modifications not checked) came in with a Ki of 437 nM.

Staying with this assay, now noted: remark: other sources report otherwise.
Molecule ALAHGVRVL (modifications not checked) registered a Ki of 627 nM.

Regarding DLMGYIPLV (modifications not checked), the Ki amounted to 36 nM. The same measure, in the same setting: the same measure for DLCGSVFLV (modifications not checked): 789 nM.

The next assay concerns the target HLA-DRB1*0101 (human). Description: competition vs 125I-labelled probe peptide, purified HLA-DR.
Conditions: not given
As for ASQLSAPSLKATCTT (modifications not checked) [… (SEQ ID NO 2111)], the IC50 was 329 nM. Regarding PQTFQVAHLHAPTGS (modifications not checked) [… (SEQ ID NO 2192)], the half-inhibitory concentration (IC50) is 22 nM. Same read-out and setting: the figure for ASCLRKLGVPPLRVW (modifications not checked) [… (SEQ ID NO 2110)] is 4.9 nM; for SKGWRLLAPITAYAQ (modifications not checked) [… (SEQ ID NO 2213)] it is 0.4 nM; for RAAVCTRGVAKAVDF (modifications not checked) [… (SEQ ID NO 2199)] it is 619 nM. In turn, GYKVLVLNPSVAATL (modifications not checked) [… (SEQ ID NO 2157)] returned an IC50 of 8.4 nM.

As to GVNYATGNLPGCSFS (modifications not checked) [… (SEQ ID NO 2155)], the IC50 worked out at 4560 nM.

The assay is the same for the next values; noted with them: remark: other sources report otherwise.
In turn, DVVVVATDALMTGYT (modifications not checked) [… (SEQ ID NO 2125)] gave an IC50 of 456 nM. Still for that read-out and setting: the figure for TTIMAKNEVFCVQPE (modifications not checked) [… (SEQ ID NO 2226)] is 3730 nM; for WESVFTGLTHIDAHF (modifications not checked) [… (SEQ ID NO 2245)] it is 122 nM; for GARLVVLATATPPGS (modifications not checked) [… (SEQ ID NO 2137)] it is 173 nM.

As for GSSYGFQYSPGQRVE (modifications not checked) [… (SEQ ID NO 2153)], the 50% inhibitory concentration (IC50) worked out at 11 nM. Molecule LAGYGAGVAGALVAF (modifications not checked) [… (SEQ ID NO 2166)] gave a concentration for half-maximal inhibition (IC50) of 137 nM.

ADLMGYIPLVGAPLG (modifications not checked) [… (SEQ ID NO 2105)] registered a half-maximal inhibitory concentration (IC50) of 8330 nM.

The target of a further assay is HLA-B0702 (human). Description: competition with 125I-labelled probe peptide on purified soluble HLA. The following applies: remark: other sources report otherwise.
The molecule APTLWARMIL (modifications not checked) gave an inhibition constant (Ki) of 1 nM. In turn, LPRRGPRLGV (modifications not checked) yielded an inhibition constant Ki of 3 nM.

The next assay has as its target HLA-A*0201 (human). The assay is described as follows: competition binding, purified soluble HLA, 125I-labelled probe peptide.
Conditions: not given
With YQATVCARA (modifications not checked), the IC50 was found to be 20 nM. The same measure, in the same setting: the figure for YLFNWAVRT (modifications not checked) is 29 nM.

Consider NIIMYAPTL (modifications not checked), for which the IC50 is 70 nM.

Still in this assay, the particulars now being: remark: other sources report otherwise.
For IMACMSADL (modifications not checked), the IC50 came out at 66 nM.

The target of a further assay is HLA-A*0201 (human). The assay is described as follows: competition with radiolabeled probe peptide for purified soluble HLA-A*0201.
Conditions: not given
Take KVLVLNPSV (modifications not checked): the IC50 was determined as 50 nM. QIVGGVYLL (modifications not checked) had a concentration for half-maximal inhibition (IC50) of 228 nM. For the molecule GMFDSSVLC (modifications not checked), the IC50 turned out to be 114 nM. CLVDYPYRL (modifications not checked) gave a half-inhibitory concentration (IC50) of 437 nM.

Staying with this assay, now noted: remark: other sources report otherwise.
Regarding NLPGCSFSI (modifications not checked), the concentration for half-maximal inhibition (IC50) came to 83 nM. On the same count and under the same terms, the same measure for DLMGYIPLV (modifications not checked): 83 nM; for FLLALLSCL (modifications not checked): 136 nM. The same measure, in the same setting: the same measure for YIPLVGAPL (modifications not checked): 337 nM.

The next assay deals with HLA-Cw0602 (human).
Assay: not given
Conditions: not given
In the case of VAYYRGLDV (modifications not checked), the Ki was determined as 231 nM. In turn, GRRGIYRFV (modifications not checked) yielded an inhibition constant Ki of 576 nM. On the same count and under the same terms, the same measure for RKPARLIVF (modifications not checked): 8280 nM; for YRRCRASGV (modifications not checked): 634 nM. YAAQGYKVLV (modifications not checked) came in with a Ki of 9210 nM.

The molecule GRKPARLIV (modifications not checked) returned an inhibition constant (Ki) of 2040 nM.

Still in this assay, the particulars now being: remark: other sources report otherwise.
NAVAYYRGL (modifications not checked) had a Ki of 10800 nM.

As for TYSTYGKFL (modifications not checked), the Ki worked out at 4860 nM.

A further assay addresses HLA-Cw0702 (human).
Assay: not given
Conditions: not given
Regarding DQRPYCWHY (modifications not checked), the Ki stood at 710 nM.

The molecule TYSTYGKFL (modifications not checked) yielded a Ki of 239 nM. For the molecule YRRCRASGVL (modifications not checked), the Ki is 83 nM. Same read-out and setting: the figure for YYRGLDVSVI (modifications not checked) is 87 nM.

The term Ki denotes the equilibrium dissociation constant of an inhibitor or competing ligand from its target. Low readings indicate higher affinity, high ones lower affinity. As usually defined, the IC50 is the concentration that gives 50% inhibition. Lower therefore signals higher potency.
